Test results taken from the supplement of paper PMC10567573.

B1: KLHL12 (parent)
chain: REESLPNLLQYVRMPLLTPRYITD
B2: TRIM55 (parent)
chain: FQMEKIEHGYENMNHFTVNLNREE

Variants of: B1
Test: protein stability index of a GFP-peptide fusion (GPS, HEK-293T) (PSI 1-6); higher = more stable
Settings: c terminus: a fixed tail appended
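Note: lentivirally expressed fusions sorted by FACS into six bins by GFP to DsRed ratio, PSI derived from sequencing read proportions per bin multiplied by bin number.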

| Variant | protein stability index |
| --- | --- |
| T23I | 2.12 |
| T23F | 1.62 |
| Y11C | 2.82 |
| Y11F | 2.92 |
| Y11A | 2.76 |
| Y11H | 2.88 |
| Y11D | 3.96 |
| Y11P | 3.56 |
| Y11R | 3.21 |
| Y11N | 3.47 |
| Y11V | 2.51 |
| L8E | 3 |
| L8D | 3.75 |
| L8P | 3.18 |
| L8Y | 2.67 |
| L8H | 3.27 |
| L17A | 3.51 |
| L17Y | 2.98 |
| L17Q | 2.86 |
| L17V | 3.56 |
| L17H | 2.83 |
| L17F | 2.16 |
| Q10G | 2.45 |

| Variant | protein stability index |
| --- | --- |
| Q10A | 2.47 |
| Q10T | 2.28 |
| Q10N | 2.05 |
| Q10L | 2.27 |
| Q10R | 3.13 |
| Q10P | 2.79 |
| T18S | 2.27 |
| T18C | 1.96 |
| T18N | 1.7 |
| T18M | 1.81 |
| T18G | 3.92 |
| T18P | 2.29 |
| T18R | 2.67 |
| T18Y | 1.95 |
| N7Q | 2.65 |
| N7L | 2.01 |
| N7W | 3.17 |
| I22R | 3.84 |
| I22V | 2.18 |
| I22G | 2.4 |
| I22D | 3.27 |
| E3C | 2.5 |
| E3L | 2.11 |

| Variant | protein stability index |
| --- | --- |
| E3S | 2.14 |
| E3R | 2.83 |
| E3F | 1.95 |
| E3T | 2.67 |
| E3I | 2.02 |
| E3V | 2.45 |
| E3P | 2.19 |
| P6H | 2.13 |
| P6E | 2.15 |
| P6T | 2.13 |
| P6C | 2.05 |
| P6G | 2.28 |
| D24N | 2.35 |
| D24E | 2.26 |
| D24V | 1.57 |
| V12K | 2.81 |
| V12P | 3.45 |
| V12F | 1.86 |
| V12Q | 3.07 |
| V12C | 1.98 |
| V12L | 1.86 |
| R13G | 1.76 |
| R13V | 2.66 |

| Variant | protein stability index |
| --- | --- |
| R13D | 2.48 |
| R13S | 1.52 |
| R13M | 2.07 |
| R13C | 3.21 |
| R13T | 1.64 |
| P19Q | 2.18 |
| P19D | 2.9 |
| P19E | 3.03 |
| P19I | 2.12 |
| M14G | 3.11 |
| M14R | 2.68 |
| M14K | 3.46 |
| M14V | 2.87 |
| L5E | 3.4 |
| L5M | 2.9 |
| L5H | 2.51 |
| L5K | 2.65 |
| L5S | 2.8 |
| P15Q | 2.45 |
| P15R | 1.69 |
| P15M | 2.48 |
| L9R | 3.14 |
| L9Q | 3.77 |

| Variant | protein stability index |
| --- | --- |
| L9G | 3.03 |
| L9A | 2.97 |
| L16C | 2.41 |
| L16D | 2.69 |
| L16R | 3.25 |
| L16Y | 2.98 |
| L16V | 3.03 |
| L16N | 2.77 |
| L16E | 3.04 |
| E2H | 2.92 |
| E2S | 3.42 |
| E2L | 2.47 |
| E2Q | 2.53 |
| E2V | 2.63 |
| E2K | 2.31 |
| E2N | 2.51 |
| Y21W | 1.79 |
| Y21D | 3.69 |
| Y21E | 3.17 |
| Y21T | 3.26 |
| Y21R | 3.24 |
| Y21N | 3.25 |
| Y21F | 2.22 |

| Variant | protein stability index |
| --- | --- |
| Y21V | 2.72 |
| R1A | 2.23 |
| R1S | 2.7 |
| R1C | 1.96 |
| R1D | 2.63 |
| R1W | 1.61 |
| R1T | 2.19 |
| R1Q | 2.31 |
| R1G | 2.23 |
| R1V | 2.35 |
| S4I | 2.16 |
| S4M | 2.21 |
| S4Q | 2.51 |
| S4H | 2.51 |
| S4R | 2.5 |
| S4G | 2.69 |
| R20V | 1.92 |
| R20W | 1.22 |
| R20Y | 1.67 |
| R20N | 2.78 |
| R20A | 2.19 |

Variants of: B2
Test: as above
Settings: c terminus: a fixed tail appended

| Variant | protein stability index |
| --- | --- |
| R22P | 2.99 |
| R22G | 2.67 |
| R22S | 3 |
| R22K | 3.75 |
| R22I | 2.4 |
| R22L | 1.96 |
| R22V | 2.56 |
| R22W | 2.59 |
| R22A | 2.73 |
| R22C | 3.09 |
| R22H | 2.64 |
| R22T | 2.99 |
| R22M | 2.44 |
| R22F | 1.98 |
| R22D | 3.32 |
| R22Y | 2.31 |
| R22Q | 3.1 |
| R22N | 3.57 |
| R22E | 3.77 |
| N14Y | 3.78 |
| N14P | 2.79 |
| N14S | 2.68 |
| N14L | 2.29 |
| N14T | 2.69 |
| N14Q | 3.11 |

| Variant | protein stability index |
| --- | --- |
| N14M | 2.29 |
| N14R | 2.86 |
| N14V | 2.15 |
| L20R | 3.01 |
| L20F | 2.71 |
| L20C | 2.33 |
| L20K | 3.04 |
| L20N | 3.5 |
| L20W | 2.35 |
| L20A | 3.2 |
| L20V | 1.91 |
| L20I | 2.64 |
| L20M | 2.51 |
| L20D | 3.47 |
| L20S | 3.2 |
| L20E | 3.53 |
| L20P | 2.88 |
| L20Y | 2.42 |
| L20H | 3.23 |
| L20T | 2.7 |
| L20Q | 3.33 |
| L20G | 3.43 |
| V18E | 3.61 |
| V18A | 3.24 |
| V18N | 3.52 |

| Variant | protein stability index |
| --- | --- |
| V18K | 3.27 |
| V18Q | 4.15 |
| V18F | 3.21 |
| V18I | 2.94 |
| V18L | 3.08 |
| V18S | 3.77 |
| V18R | 3.73 |
| V18W | 1.69 |
| V18Y | 2.39 |
| V18M | 3.49 |
| V18T | 3.86 |
| V18H | 3.66 |
| V18G | 3.74 |
| V18P | 2.11 |
| V18C | 2.03 |
| V18D | 3.94 |
| E24L | 3.02 |
| E24A | 2.27 |
| E24R | 3.3 |
| E24M | 1.57 |
| E24V | 2.49 |
| E24I | 1.98 |
| E24D | 2.77 |
| E24N | 2.33 |
| E24S | 2.06 |

| Variant | protein stability index |
| --- | --- |
| E24H | 2.43 |
| E24T | 2.12 |
| E24G | 1.97 |
| E24F | 1.77 |
| E24Q | 3 |
| E24K | 2.57 |
| E24Y | 1.57 |
| E24C | 2.4 |
| E24P | 2.37 |
| E24W | 2.1 |
| N21G | 2.86 |
| N21W | 1.13 |
| N21H | 2.15 |
| N21D | 3.65 |
| N21S | 3.08 |
| N21P | 2.94 |
| N21V | 2.4 |
| N21R | 2.51 |
| N21E | 3.54 |
| N21F | 2.07 |
| N21A | 2.89 |
| N21I | 2.59 |
| N21Y | 2.5 |
| N21M | 2.1 |
| N21Q | 3.07 |

| Variant | protein stability index |
| --- | --- |
| N21T | 2.65 |
| N21C | 1.82 |
| N21K | 2.87 |
| N21L | 2.2 |
| F16G | 4.23 |
| F16W | 1.96 |
| F16Q | 4.23 |
| F16Y | 3.29 |
| F16H | 4.09 |
| F16I | 3.65 |
| F16K | 4.52 |
| F16M | 3.87 |
| F16V | 4.01 |
| F16S | 4.41 |
| F16N | 4.31 |
| F16T | 4.36 |
| F16R | 4.25 |
| F16P | 4.4 |
| F16D | 4.71 |
| F16E | 4.5 |
| F16C | 4.06 |
| F16L | 4.21 |
| F16A | 4.17 |
| T17E | 4.27 |
| T17V | 2.25 |

| Variant | protein stability index |
| --- | --- |
| T17I | 2.06 |
| T17S | 3.03 |
| T17F | 1.74 |
| T17G | 2.86 |
| T17R | 3.1 |
| T17H | 3.4 |
| T17C | 2.49 |
| T17K | 3.31 |
| T17A | 2.59 |
| T17W | 1.93 |
| T17Q | 3.75 |
| T17M | 2.77 |
| T17D | 4.07 |
| T17L | 2.31 |
| T17P | 3.7 |
| T17N | 3.76 |
| T17Y | 1.92 |
| H15Y | 1.82 |
| H15W | 1.98 |
| H15G | 3.72 |
| H15A | 2.1 |
| H15Q | 3.57 |
| H15V | 1.76 |
| H15N | 3.77 |
| H15T | 2.76 |

| Variant | protein stability index |
| --- | --- |
| H15C | 2.22 |
| H15P | 1.5 |
| H15E | 3.62 |
| H15S | 3.14 |
| H15M | 1.95 |
| H15F | 2.14 |
| H15K | 3.15 |
| H15D | 3.97 |
| H15L | 1.8 |
| H15R | 3.12 |
| H15I | 1.99 |
| N19W | 2.09 |
| N19Q | 2.68 |
| N19L | 2.22 |
| N19E | 3.28 |
| N19S | 2.16 |
| N19F | 2.29 |
| N19Y | 1.86 |
| N19P | 3.4 |
| N19G | 2.72 |
| N19H | 2.24 |
| N19C | 2.65 |
| N19V | 2.29 |
| N19D | 3.37 |
| N19M | 2.27 |

| Variant | protein stability index |
| --- | --- |
| N19I | 2.05 |
| N19R | 2.4 |
| N19A | 3.17 |
| N19K | 2.47 |
| N19T | 2.27 |
| E23Q | 2.39 |
| E23V | 2.62 |
| E23L | 2.17 |
| E23D | 3.09 |
| E23C | 1.67 |
| E23S | 2.67 |
| E23R | 1.88 |
| E23P | 2.29 |
| E23M | 2.27 |
| E23F | 1.88 |
| E23I | 1.64 |
| E23N | 2.87 |
| E23A | 1.77 |
| E23H | 1.77 |
| E23T | 1.92 |
| E23K | 2.26 |
| E23G | 2.28 |
| E23Y | 2.23 |
